From patent US20040219637A1

Columns and labels:
[1] = target: Crotalus durissus terrificus venom; test: ELISA, venom coat, undiluted
[2] = target: Crotalus durissus terrificus venom; test: ELISA, venom coat, dilution 1:125
[3] = target: Crotalus durissus terrificus venom; test: ELISA, venom coat, dilution 1:3125
[4] = target: Crotalus durissus terrificus venom; test: ELISA, venom coat, dilution 1:312,500
[5] = target: Crotalus durissus terrificus venom; test: ELISA, venom coat, dilution 1:25
[6] = target: Crotalus durissus terrificus venom; test: ELISA, venom coat, dilution 1:625
[7] = target: Crotalus durissus terrificus venom; test: ELISA, venom coat, dilution 1:5
[8] = target: Crotalus durissus terrificus venom; test: ELISA, venom coat, dilution 1:25; remark: listed apart in the source
[9] = target: Crotalus durissus terrificus venom; test: ELISA, venom coat, dilution 1:625; remark: listed apart in the source
[10] = target: Crotalus durissus terrificus venom; test: ELISA, venom coat, dilution 1:125; remark: listed apart in the source
[11] = target: Crotalus durissus terrificus venom; test: ELISA, venom coat, dilution 1:3125; remark: listed apart in the source
[12] = target: Crotalus durissus terrificus venom; test: ELISA, venom coat, dilution 1:62,500

Substance: Preimmune IgY (egg yolk antibody of unimmunized hens)
- ELISA absorbance [1]: 0.003 absorbance
- ELISA absorbance [2]: 0.003 absorbance
- ELISA absorbance [3]: 0.002 absorbance
- ELISA absorbance (412 nm) [4]: 0.01 absorbance
- ELISA absorbance [5]: 0 absorbance
- ELISA absorbance [6]: 0 absorbance
- ELISA absorbance [7]: < 0 absorbance
- ELISA absorbance [8]: 0.016 absorbance
- ELISA absorbance [9]: < 0 absorbance
- ELISA absorbance [10]: < 0 absorbance
- ELISA absorbance [11]: < 0 absorbance
- ELISA absorbance (412 nm) [12]: 0.001 absorbance
